The data set concerns Escherichia coli TOP10. Nature of the data set: shrunken log2 fold change of peptide-encoding DNA abundance (4.5 h post-induction vs induction); higher = less antimicrobial activity (less host growth inhibition). The settings on record: time post-induction: 4.5 h; library: site-saturation at positions 5, 18, 19, 20.
As for RRIRMRPPRLPRPRPRPMPSPRP, the “shrunken log2 fold change” value was 0.262.

On to RRIRTRPPRLPRPRPRPNRMPRP, for which the “shrunken log2 fold change” value was -0.331. Regarding RRIRKRPPRLPRPRPRPGGDPRP, the “shrunken log2 fold change” value is 0.16. Next, RRIRDRPPRLPRPRPRPFVFPRP: 0.175; RRIRIRPPRLPRPRPRPAEQPRP: -0.0532.

Take RRIRCRPPRLPRPRPRPWPDPRP: the “shrunken log2 fold change” value was found to be 0.0862.

With RRIRSRPPRLPRPRPRPTLKPRP, the “shrunken log2 fold change” value is -0.139. For RRIRWRPPRLPRPRPRPVLPPRP, the “shrunken log2 fold change” value is -0.0604.

Take RRIRARPPRLPRPRPRPFGHPRP: the “shrunken log2 fold change” value was 0.132.

With RRIRHRPPRLPRPRPRPDNNPRP, the “shrunken log2 fold change” value was -0.453.

For RRIRWRPPRLPRPRPRPQFKPRP, the “shrunken log2 fold change” value is -0.0678. In the case of RRIRDRPPRLPRPRPRPDTTPRP, the “shrunken log2 fold change” value came out at 0.345.

Take RRIRMRPPRLPRPRPRPTMDPRP: the “shrunken log2 fold change” value is 0.306.

As to RRIRLRPPRLPRPRPRPVDGPRP, the “shrunken log2 fold change” value turned out to be 0.0489. As to RRIRCRPPRLPRPRPRPTKWPRP, the “shrunken log2 fold change” value was -0.121. As to RRIRMRPPRLPRPRPRPIREPRP, the “shrunken log2 fold change” value was 0.425. Consider RRIRKRPPRLPRPRPRPMCFPRP, for which the “shrunken log2 fold change” value was 0.265. As for RRIRSRPPRLPRPRPRPAVAPRP, the “shrunken log2 fold change” value was 0.0474. As to RRIRNRPPRLPRPRPRPYEFPRP, the “shrunken log2 fold change” value is 0.121. RRIRYRPPRLPRPRPRPLATPRP: the “shrunken log2 fold change” value is -0.378.

Consider RRIRCRPPRLPRPRPRPPLCPRP, for which the “shrunken log2 fold change” value turned out to be 0.674. Consider RRIRDRPPRLPRPRPRPQRIPRP, for which the “shrunken log2 fold change” value is -0.142. Consider RRIRNRPPRLPRPRPRPECRPRP, for which the “shrunken log2 fold change” value stood at 0.263.

For the sequence RRIRYRPPRLPRPRPRPQFPPRP, the “shrunken log2 fold change” value is -0.0877. For RRIRLRPPRLPRPRPRPDDLPRP, the “shrunken log2 fold change” value was -0.0581.

With RRIRARPPRLPRPRPRPHMLPRP, the “shrunken log2 fold change” value is -0.196.

RRIRGRPPRLPRPRPRPKLSPRP: the “shrunken log2 fold change” value is -0.0523.

For RRIRNRPPRLPRPRPRPQSNPRP, the “shrunken log2 fold change” value was -0.428. Turning to RRIRSRPPRLPRPRPRPEPMPRP, the “shrunken log2 fold change” value is 0.54. Next, RRIRTRPPRLPRPRPRPENQPRP: 0.0593. The same measure for RRIRGRPPRLPRPRPRPRNQPRP: 0.402; for RRIRWRPPRLPRPRPRPWAHPRP: 0.0966; for RRIRQRPPRLPRPRPRPVWHPRP: 0.0663. As for RRIRARPPRLPRPRPRPENIPRP, the “shrunken log2 fold change” value was -0.251. Consider RRIRFRPPRLPRPRPRPNLWPRP, for which the “shrunken log2 fold change” value amounted to 0.031. RRIRARPPRLPRPRPRPYHYPRP: the “shrunken log2 fold change” value was -0.0868. The same measure for RRIRIRPPRLPRPRPRPNTKPRP: -0.202; for RRIRIRPPRLPRPRPRPPTSPRP: -0.172; for RRIRWRPPRLPRPRPRPPDCPRP: -0.259. The same measure for RRIRARPPRLPRPRPRPKKVPRP: 0.708; for RRIRKRPPRLPRPRPRPAFRPRP: 0.576. RRIRDRPPRLPRPRPRPSQLPRP: the “shrunken log2 fold change” value was -0.633. As for RRIRKRPPRLPRPRPRPIVDPRP, the “shrunken log2 fold change” value is 0.234.

In the case of RRIRPRPPRLPRPRPRPYIGPRP, the “shrunken log2 fold change” value was -0.184. RRIRTRPPRLPRPRPRPYHEPRP: the “shrunken log2 fold change” value was -0.0196. For the sequence RRIRYRPPRLPRPRPRPILNPRP, the “shrunken log2 fold change” value was -0.768.

As to RRIRRRPPRLPRPRPRPMRVPRP, the “shrunken log2 fold change” value worked out at 0.93.

With RRIRVRPPRLPRPRPRPQMRPRP, the “shrunken log2 fold change” value was determined as 0.458. As to RRIRQRPPRLPRPRPRPFVEPRP, the “shrunken log2 fold change” value is -0.152.

As for RRIRKRPPRLPRPRPRPYPCPRP, the “shrunken log2 fold change” value was -0.034. With RRIRFRPPRLPRPRPRPLHMPRP, the “shrunken log2 fold change” value was -1.06. On to RRIRMRPPRLPRPRPRPEYWPRP, for which the “shrunken log2 fold change” value worked out at 0.339. Regarding RRIRLRPPRLPRPRPRPAAHPRP, the “shrunken log2 fold change” value amounted to 0.163. In the case of RRIRMRPPRLPRPRPRPLPGPRP, the “shrunken log2 fold change” value was 0.8. On to RRIRGRPPRLPRPRPRPFGCPRP, for which the “shrunken log2 fold change” value was -0.0567. Turning to RRIRTRPPRLPRPRPRPHEFPRP, the “shrunken log2 fold change” value was -0.175. The same measure for RRIRPRPPRLPRPRPRPSYKPRP: -0.564; for RRIRQRPPRLPRPRPRPSKTPRP: -0.0854; for RRIRARPPRLPRPRPRPVFSPRP: -0.0817. RRIRRRPPRLPRPRPRPHKRPRP: the “shrunken log2 fold change” value is 0.124.

Turning to RRIRDRPPRLPRPRPRPPNEPRP, the “shrunken log2 fold change” value is -0.0231. As to RRIRGRPPRLPRPRPRPQLFPRP, the “shrunken log2 fold change” value came out at 0.838. For the sequence RRIRIRPPRLPRPRPRPESLPRP, the “shrunken log2 fold change” value is -0.23. For RRIRCRPPRLPRPRPRPLPTPRP, the “shrunken log2 fold change” value was determined as 0.63.

On to RRIRERPPRLPRPRPRPIVKPRP, for which the “shrunken log2 fold change” value is -0.0406. On to RRIRKRPPRLPRPRPRPQLCPRP, for which the “shrunken log2 fold change” value was 0.129. With RRIRERPPRLPRPRPRPNFTPRP, the “shrunken log2 fold change” value was -0.111. For RRIRKRPPRLPRPRPRPWMKPRP, the “shrunken log2 fold change” value is -0.0454. For the sequence RRIRCRPPRLPRPRPRPHSNPRP, the “shrunken log2 fold change” value was -0.625. The same measure for RRIRSRPPRLPRPRPRPVQEPRP: 0.403; for RRIRSRPPRLPRPRPRPWNVPRP: -0.346; for RRIRFRPPRLPRPRPRPEKSPRP: -0.101. RRIRRRPPRLPRPRPRPQFNPRP: the “shrunken log2 fold change” value was -0.323.

In the case of RRIRPRPPRLPRPRPRPGFIPRP, the “shrunken log2 fold change” value is -0.221. The same measure for RRIRGRPPRLPRPRPRPVYTPRP: 0.00198.

For the sequence RRIRYRPPRLPRPRPRPSGFPRP, the “shrunken log2 fold change” value was -0.99. Consider RRIRVRPPRLPRPRPRPESNPRP, for which the “shrunken log2 fold change” value was 0.0327. RRIRSRPPRLPRPRPRPSVDPRP: the “shrunken log2 fold change” value worked out at 0.0566.

RRIRTRPPRLPRPRPRPQRHPRP: the “shrunken log2 fold change” value amounted to 0.19. RRIRDRPPRLPRPRPRPENWPRP: the “shrunken log2 fold change” value was found to be 0.695. RRIRTRPPRLPRPRPRPCNKPRP: the “shrunken log2 fold change” value is -0.121. The same measure for RRIRGRPPRLPRPRPRPRVPPRP: 0.356; for RRIRMRPPRLPRPRPRPEVLPRP: -0.0436. In the case of RRIRQRPPRLPRPRPRPPDMPRP, the “shrunken log2 fold change” value was -0.14. The same measure for RRIRMRPPRLPRPRPRPAHFPRP: 0.152. Next, RRIRCRPPRLPRPRPRPCWYPRP: 0.0339; RRIRPRPPRLPRPRPRPRITPRP: 0.0754. In the case of RRIRLRPPRLPRPRPRPFIAPRP, the “shrunken log2 fold change” value was -0.496. Take RRIRLRPPRLPRPRPRPCLYPRP: the “shrunken log2 fold change” value is -0.247. As to RRIRKRPPRLPRPRPRPKQFPRP, the “shrunken log2 fold change” value was -0.123. As for RRIRFRPPRLPRPRPRPYYDPRP, the “shrunken log2 fold change” value is -0.072.

For the origin of these results see the supplement of paper PMC9112550, “Optimization of the antimicrobial peptide Bac7 by deep mutational scanning” (BMC Biology, 2022).
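Also: peptides expressed intracellularly from a pBAD plasmid library in pooled LB shake-flask culture, induced with 0.3% L-arabinose, DNA abundance read by NGS, three biological replicates, DESeq2 with apeglm shrinkage.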
